Columns and labels:
[1] = substrate: CCn1c(=NN=c2sc3cc(S(=O)(=O)O)ccc3n2CC)sc2cc(S(=O)(=O)O)ccc21; experiment: purified protein, by the assay type; details: other: pH 5.3, ABTS oxidation, 20.0 °C
[2] = substrate: COc1cc(C=NN=Cc2cc(OC)c(O)c(OC)c2)cc(OC)c1O; experiment: purified protein, by the assay type; format: biochemical, Coprinus cinereus; details: other: pH 5.3, syringaldazine oxidation, 20.0 °C
Method: Laccase activity is determined by syringaldazine oxidation. Specifically, 60 μl of syringaldazine stock solution (0.28 mM in 50% ethanol) and 20 μl of laccase sample are mixed with 0.8 ml of preheated Britton-Robinson buffer solution and incubated at 20° C. The oxidation is monitored at 530 nm over 5 minutes and activity is expressed as "SOU" μmole syringaldazine oxidized per minute ("SOU"). Britton-Robinson buffers with various pHs are used.
The values for Km and kcat are determined by fitting initial rates (v=ΔA/Δt/Δe; Δe: extinction coefficient change), laccase concentration (E), and substrate concentration (S) into v=kcat *E*S/(Km +S) with the Prizm nonlinear regression software (GraphPad, San Diego, Calif.).

B1: recombinant Coprinus cinereus laccase Lcc1 (SEQ ID NO:27), expressed in Aspergillus oryzae (Coprinopsis cinerea) (protein)
chain: QIVNSVDTMTLTNANVSPDGFTRAGILVNGVHGPLIRGGKNDNFELNVVNDLDNPTMLRPTSIHWHGLFQRGTNWADGADGVNQCPISPGHAFLYKFTPAGHAGTFWYHSHFGTQYCDGLRGPMVIYDDNDPHAALYDEDDENTIITLADWYHIPAPSIQGAAQPDATLINGKGRYVGGPAAELSIVNVEQGKKYRMRLISLSCDPNWQFSIDGHELTIIEVDGQLTEPHTVDRLQIFTGQRYSFVLDANQPVDNYWIRAQPNKGRNGLAGTFANGVNSAILRYAGAANADPTTSANPNPAQLNEADLHALIDPAAPGIPTPGAADVNLRFQLGFSGGRFTINGTAYESPSVPTLLQIMSGAQSANDLLPAGSVYELPRNQVVELVVPAGVLGGPHPFHLHGHAFSVVRSAGSSTYNFVNPVKRDVVSLGVTGDEVTIRFVTDNPGPWFFHCHIEFHLMNGLAIVFAEDMANTVDANNPPVEWAQLCEIYDDLPPEATSIQTVVRRAEPTGFSAKFRREGL
Q: What does the source list for B1?
A: Km [1]: 23 ± 3 µM; kcat [1]: 18.17 ± 0.5 s⁻¹; Km [2]: 26 ± 6 µM; kcat [2]: 3 ± 0.333 s⁻¹
